Assay results from the supplement of paper PMC7125110.
± gives the standard error. For some of these results: Fewer inactive variants are shown than the library holds.

B1: glmS ribozyme (parent)
chain: AUAAAAGCGCCAGAACUACAGAAAUGUAGUUGACGAGGAGGAGGUUUAUCGAAUUUUCGGCGGAUGCCUCCAAA

How the values were obtained:
Settings in all cases: with glucosamine-6-phosphate
glucosamine-6-phosphate [1] = variants of: B1; test: kcat; higher = faster cleavage; RNA array
Summary of the method: (§1)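 In situ transcription by E. coli RNA polymerase produced barcoded ribozyme variants on sequenced MiSeq chips, and a hybridised Cy3 probe tracked them at 37 °C. Glucosamine-6-phosphate was flowed in at 40 μM to 10 mM in HEPES/KCl/Mg(OAc)2 buffer. kcat and KM were taken from weighted Michaelis–Menten fits of kobs values from exponential decay fits.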

glucosamine-6-phosphate [2] = variants of: B1; test: self-cleavage kobs at 40 uM GlcN6P; higher = faster cleavage; RNA array
Summary of the method: as §1

glucosamine-6-phosphate [3] = variants of: B1; test: KM; higher = weaker cofactor use; RNA array
Summary of the method: as §1

glucosamine-6-phosphate [4] = variants of: B1; test: self-cleavage kobs at 160 uM GlcN6P; higher = faster cleavage; RNA array
Summary of the method: as §1

glucosamine-6-phosphate [5] = variants of: B1; test: self-cleavage kobs at 640 uM GlcN6P; higher = faster cleavage; RNA array
Summary of the method: as §1

glucosamine-6-phosphate [6] = variants of: B1; test: self-cleavage kobs at 2500 uM GlcN6P; higher = faster cleavage; RNA array
Summary of the method: as §1

glucosamine-6-phosphate [7] = variants of: B1; test: self-cleavage kobs at 10000 uM GlcN6P; higher = faster cleavage; RNA array
Summary of the method: as §1

Variant	kcat (glucosamine-6-phosphate [1]) [s⁻¹]	self-cleavage kobs at 40 uM GlcN6P (glucosamine-6-phosphate [2]) [s⁻¹]	KM (glucosamine-6-phosphate [3]) [µM]	self-cleavage kobs at 160 uM GlcN6P (glucosamine-6-phosphate [4]) [s⁻¹]	self-cleavage kobs at 640 uM GlcN6P (glucosamine-6-phosphate [5]) [s⁻¹]	self-cleavage kobs at 2500 uM GlcN6P (glucosamine-6-phosphate [6]) [s⁻¹]	self-cleavage kobs at 10000 uM GlcN6P (glucosamine-6-phosphate [7]) [s⁻¹]
AUAAAAGCGCCAUAACUACAGAAAUGUAGUUGACGAGGAGGAGGUUUAUCGAAUUUUCGGCGGAUGGCUCCAAA [G13U C67G]	< 1e-05	< 1e-05	–	–	–	–	–
AUAAAAGCGCCAUAACUACAGAAAUGUAGUUGACGAGGAGGAGGUUUAUCGAAUUUUCGGCGGAUGACUCCAAA [G13U C67A]	0.000419 ± 9e-05	–	2040 ± 670	3.99e-05 ± 9e-06	9.71e-05 ± 9.5e-06	0.000225 ± 2.3e-05	0.000504 ± 0.00015
AUAAAAGCGCCAUAACUACAGAAAUGUAGUCGACGAGGAGGAGGUUUAUCGAAUUUUCGGCGGAUGCCUCCAAA [G13U U31C]	0.000427 ± 1.8e-05	–	1040 ± 110	4.8e-05 ± 2.1e-05	0.00017 ± 2.8e-05	0.000297 ± 3.8e-05	0.000387 ± 5.1e-05
AUAAAAGCGCCAUAACUACAGAAAUGUAGUGGACGAGGAGGAGGUUUAUCGAAUUUUCGGCGGAUGCCUCCAAA [G13U U31G]	0.000294 ± 0.0001	–	–	2.89e-05 ± 1.3e-05	4.24e-05 ± 8.5e-06	0.000226 ± 2.7e-05	0.000207 ± 2.6e-05
AUAAAAGCGCCAUAACUACAGAAAUGUAGUUUACGAGGAGGAGGUUUAUCGAAUUUUCGGCGGAUGCCUCCAAA [G13U G32U]	0.00043 ± 2.8e-05	–	3420 ± 370	2.69e-05 ± 1.1e-05	6.64e-05 ± 8.3e-06	0.000182 ± 3.1e-05	0.000321 ± 3.4e-05
AUAAAAGCGCCAUAACUACAGAAAUGUAGUUGACGAGGAGGAGGUUUAUCGAAUUUUCGGCGGAUGCCUCUAAA [G13U C71U]	0.00114 ± 0.00015	2.24e-05 ± 7.7e-06	2020 ± 470	0.000105 ± 1.7e-05	0.000229 ± 3.7e-05	0.000673 ± 8.2e-05	0.000946 ± 9.8e-05
AUAAAAGCGCCAUAACUACAGAAAUGUAGUUGACGAUGAGGAGGUUUAUCGAAUUUUCGGCGGAUGCCUCCAAA [G13U G37U]	< 1e-05	–	–	–	< 1e-05	–	< 1e-05
AUAAAAGCGCCAUAACUACAGAAAUGUAGUUGACGAGGACGAGGUUUAUCGAAUUUUCGGCGGAUGCCUCCAAA [G13U G40C]	8.27e-05 ± 6.4e-06	–	994 ± 460	–	–	4.94e-05 ± 1.9e-05	7.64e-05 ± 9.8e-06
AUAAAAGCGCCAUAACUACAGAAAUGUAGUUGACGAGGAUGAGGUUUAUCGAAUUUUCGGCGGAUGCCUCCAAA [G13U G40U]	7.77e-05 ± 1.2e-05	–	–	–	3.55e-05 ± 9.5e-06	8.94e-05 ± 1.4e-05	6.79e-05 ± 8.5e-06
AUAAAAGCGCCAUAACUACAGAAAUGUAUUCGACGAGGAGGAGGUUUAUCGAAUUUUCGGCGGAUGCCUCCAAA [G13U G29U U31C]	1.48e-05 ± 3.5e-06	< 1e-05	–	–	–	–	–
AUAAAAGCGCCAUAACUACAGAAAUGUAGUUGACGAGGAGGAGGUUUAUCGAAUUUUCGGCGGAUGCUUCCAAA [G13U C68U]	0.000114 ± 6.9e-06	–	1630 ± 310	–	2.76e-05 ± 8.2e-06	7.37e-05 ± 8.5e-06	9.63e-05 ± 8.5e-06
AUAAAAGCGCCAUAACUACAGAAAUGUAGUUGACGAGGAGUAGGUUUAUCGAAUUUUCGGCGGAUGCCUCCAAA [G13U G41U]	7.91e-05 ± 6.7e-06	–	4150 ± 890	–	–	3.07e-05 ± 8.6e-06	5.57e-05 ± 8.2e-06
AUAAAAGCGCCAUAACUACAGAAAUGUAGUUGACGAGGAGCAGGUUUAUCGAAUUUUCGGCGGAUGCCUCCAAA [G13U G41C]	0.000161 ± 1.8e-05	< 1e-05	–	< 1e-05	< 1e-05	–	–
AUAAAAGCGCCAUAACUACAGAAAUGUAGUUGACGAGGAGGAGGUUUAUCGAAUUUUCGGCGGAUUCCUCCAAA [G13U G66U]	3.6e-05 ± 2.5e-06	–	3580 ± 630	–	–	–	2.65e-05 ± 1.1e-05
AUAAAAGCGCCAUAACUACAGAAAUGUAGUUGACGAGGAGGAGGUUUAUCGAAUUUUCGGCGGAUGCCUUCAAA [G13U C70U]	0.00213 ± 0.00039	2.45e-05 ± 1e-05	3200 ± 840	0.000126 ± 2.3e-05	0.000329 ± 5.2e-05	0.000792 ± 0.00018	0.00172 ± 0.00026
AUAAAAGCGCCAUAACUACAGAAAUGUAGUUGACGAGGAGGAGGUUUAUCGAAUUUUCGGCGGAUGCCUACAAA [G13U C70A]	3.03e-05 ± 5.4e-06	–	–	–	3.7e-05 ± 1.1e-05	3.54e-05 ± 9.8e-06	2.01e-05 ± 1e-05
AUAAAAGCGCCAUAACUACAGAAAUGUACUUGACGAGGAGGAGGUUUAUCGAAUUUUCGGCGGAUGCCUCCAAA [G13U G29C]	0.000126 ± 2.5e-05	–	–	–	4.72e-05 ± 1.7e-05	0.00015 ± 2.3e-05	0.000107 ± 1.4e-05
